{"source": "paper PMC12809912", "binders": {"B1": {"name": "mouse monoclonal antibody clone 1A8 (anti-DEFA5) (antibody, V domains shown)", "VH": "QVQLQQSGAELVRPGASVKMSCKALGYTFFDYEMHWMKQTPVYGLEWIGAIHPGSGDTAYNQKFKGKATLTADKSSNTAYMELSSLTSEDSAVYYCTREGTVVAPFDYWGQGTTLTVSS", "VL": "DVLMTQTPLSLPVSLGDQASISCRSSQSIVHSNGNTYLEWYLQKPGQSPKLLINKVSNRFSGVPDRFSGSGSGTDFTLKISRVEAEDLGVYYCFQGSYVPYTFGGGTKLEIK"}, "B2": {"name": "mouse monoclonal antibody clone 4F5 (anti-DEFA5) (antibody, V domains shown)", "VH": "B1 VH", "VL": "B1 VL"}, "B3": {"name": "peptide No. 57 of the overlapping library, DEFA5 amino acids 61-75 (…) A1del (peptide)", "chain": "RATCYCRTGRCATR"}}, "key": {"[1]": {"molecular_target": "T1, synthetic DEFA5 peptide residues 54-66 (…) (human)", "T1 sequence (peptide)": "LRTSGSQARATCY", "assay": "SPR; synthetic peptides 54-66 (for 1A8) and 52-66 (for 4F5); who was immobilised is not told (Fig. S5)"}, "[2]": {"molecular_target": "recombinant His-tagged human alpha-defensin 5 (DEFA5) construct, residues 23-94 behind a soluble fusion partner (human)", "sequence (Q01523 23-94)": "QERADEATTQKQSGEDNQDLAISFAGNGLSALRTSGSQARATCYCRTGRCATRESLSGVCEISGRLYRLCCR", "assay": "ELISA; indirect ELISA: recombinant DEFA5 coated at 100 ng/mL in carbonate-bicarbonate buffer pH 9.6, antibodies 250-3.9 nM 1 h at room temperature; one-site specific binding fit; two experiments"}, "[3]": {"molecular_target": "T2, synthetic DEFA5 peptide residues 52-66 (…) (human)", "T2 sequence (peptide)": "SALRTSGSQARATCY", "assay": "SPR; synthetic peptides 54-66 (for 1A8) and 52-66 (for 4F5); who was immobilised is not told (Fig. S5)"}, "[4]": {"molecular_target": "mouse monoclonal antibody clone 1A8 (anti-DEFA5)", "assay": "indirect ELISA", "conditions": "chain shown with the change;; parent: est. 2.6; read off a plot"}, "[5]": {"molecular_target": "mouse monoclonal antibody clone 4F5 (anti-DEFA5)", "assay": "indirect ELISA", "conditions": "chain shown with the change;; parent: est. 2.2; read off a plot"}}, "note": "“And” between values parts separate entries of the source, which are not always exact repeats. Identical values can stand only once."}
{"binder": "B1", "values": [{"measurement": "Kd", "setting": "[1]", "result": 303, "unit": "µM"}, {"measurement": "Kd", "setting": "[2]", "result": "42.1 nM and 45.5 nM"}]}
{"binder": "B2", "values": [{"measurement": "Kd", "setting": "[3]", "result": 4.8, "unit": "mM"}, {"measurement": "Kd", "setting": "[2]", "result": "53.4 nM and 56.6 nM"}]}
{"binder": "B3", "values": [{"measurement": "response", "setting": "[4]", "result": 2.6, "unit": "OD450nm"}, {"measurement": "response", "setting": "[5]", "result": 2.3, "unit": "OD450nm"}]}
